Positions count from the first letter of the chain named. Read-outs that look alike come from different tables or passages of the source.

The target in one assay is mouse GDF-11 (mouse, UniProt Q9Z1W4 297-405, limits assumed). Put plainly: plate binding assay, OD 450 nm, one antibody concentration that is not given, on Mu-GDF-11 (method not described in the text).
For assay [1], the target named is T1, murine pro-myostatin (mouse, UniProt O08689 25-376, biotinylated (in the SPR assay)).
T1 construct: also called proGDF8 (mouse); mouse pro-myostatin
Put plainly: plate binding assay, OD 450 nm, antibody titrated 0.0003 to 100 nM, panel 'Mu-Pro-GDF-8 Plate 1' (method not described in the text).

Assay [2] has as its target T2, human pro-myostatin (human, UniProt O14793 24-375, biotinylated (in the SPR assay)).
T2 construct: Disulfide-linked homodimer; also called proGDF8 (human)
Put plainly: plate binding assay, OD 450 nm, antibody titrated 0.0003 to 100 nM, panel 'Hu-Pro-GDF-8 Plate 1' (method not described in the text).

A further assay deals with human GDF-11 (human, UniProt O95390 299-407, limits assumed). Briefly: plate binding assay, OD 450 nm, one antibody concentration that is not given, on Hu-GDF-11 (method not described in the text).
In assay [3] the target is T3, recombinant human latent myostatin (human, UniProt O14793 24-375, biotinylated (in the Octet pH assay only)).
T3 construct: also called biotinylated human latent myostatin
Briefly: BLI (Octet Red384): streptavidin biosensors loaded with biotinylated human latent myostatin, antibody association 300 s, dissociation in PBS at pH 7.4 or pH 5.5. Here is the method:
(§1) Binding was performed at pH 7.4 and dissociation at pH 5.5 in an Octet Red384@assay. Streptavidin biosensors were baselined in 1x kinetics buffer (KB) (Sartorius) for one minute, then loaded with 100 nM biotinylated human latent myostatin for five minutes, followed by another baseline step of one minute in 1x KB. Binding of test antibodies was performed for five minutes and then dissociation was performed in PBS at either pH 7.4 or pH 5.5 for five minutes. Analysis was performed using a partial fit, in which full dissociation was projected. Kd at pH 5.5 was divided by Kd at pH 7.4 to calculate pH sensitivity.
(In general: Biolayer interferometry detects binding as a change in optical thickness at a sensor tip.)

For assay [4], the target named is T3, recombinant human latent myostatin. The description is as above. Here is the method: as §1
The source holds these as a separate data set.

Assay [5] concerns the target T4, cyno pro-myostatin (cynomolgus monkey, Biotinylated for capture in the SPR assay (site not stated). The native form is a disulfide-linked homodimer, partly furin-cleaved; one chain is given.).
T4 construct: also called proGDF8 (cynomolgus); cynomolgus monkey pro-myostatin
Put plainly: SPR Biacore 8K, biotin-antigen captured. On the technique in general: SPR reads the build-up and loss of mass on a sensor chip optically.

Assay [6] addresses T2, human pro-myostatin. Briefly: SPR Biacore 8K, biotin-antigen captured.
The target of assay [7] is T1, murine pro-myostatin. Put plainly: SPR Biacore 8K, biotin-antigen captured.
For assay [8], the target named is T3, recombinant human latent myostatin. Put plainly: cell-based or functional assay.
Assay [9] addresses T2, human pro-myostatin. Put plainly: Ab KD, summary Table 11; method and antigen not stated there.
The target in assay [10] is T3, recombinant human latent myostatin. Briefly: cell-based or functional assay. This is another data set of the same source.
Assay [11] has the same target. Briefly: cell-based or functional assay. This is another data set of the same source.
The target of assay [12] is T2, human pro-myostatin. Put plainly: cell-based or functional assay.
Assay [13] concerns the target T4, cyno pro-myostatin. Briefly: plate binding assay, absorbance at 450 nm, antibody titrated 100 to about 0.002 nM, panel 'Cyno Pure Pro-GDF-8' (method not described in the text).
Assay [14] has as its target T2, human pro-myostatin. Put plainly: plate binding assay, absorbance at 450 nm, antibody titrated 100 to about 0.002 nM, panel 'Human Pure Pro-GDF-8' (method not described in the text).
For assay [15], the target named is T2, human pro-myostatin. Put plainly: plate binding assay, OD 450 nm, antibody titrated 0.0003 to 100 nM, panel 'Hu-Pro-GDF-8 Plate 3' (method not described in the text).
Assay [16] has as its target T4, cyno pro-myostatin. Put plainly: plate binding assay, OD 450 nm, antibody titrated 0.0003 to 100 nM, panel 'Cyno-Pro-GDF-8 Plate 3' (method not described in the text).
In assay [17] the target is T1, murine pro-myostatin. Briefly: plate binding assay, OD 450 nm, antibody titrated 0.0003 to 100 nM, panel 'Mu-Pro-GDF-8 Plate 3' (method not described in the text).

Sequence of human GDF-11 (O95390 299-407 limits assumed): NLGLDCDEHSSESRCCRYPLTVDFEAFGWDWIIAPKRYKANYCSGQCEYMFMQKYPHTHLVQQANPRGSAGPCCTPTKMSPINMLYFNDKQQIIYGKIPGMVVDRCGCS
Sequence of mouse GDF-11 (Q9Z1W4 297-405 limits assumed): as the sequence (O95390 299-407 limits assumed) above

B1: Ab113 (antibody, human IgG4 S228P, kappa, V domains shown)
VH: QVQLVQSGAEVKKPGASVKVSCKVSGYLLTELSIHWVRQAPGKGLEWMGGIIPSFGTAIYAQKFQGRVTMTEDTSTDTAYMELSSLKSEDTAVYYCAISYSGFDLLPLDKWGQGTLVTVSS
VL: DIQMTQSPSSVSASVGDRVTITCRASQHISTWLAWYQQKPGKAPKLLIYYASSLQGGVPSRFSGSGSGTDFTLTISSLQPEDFANYYCLQTYTYPRTFGGGTKVEIKR
In the case of B1, the binding result with mouse GDF-11 and with human GDF-11 was “no binding” throughout. The entries for the “EC50 (read off the curve)” value in the assay with murine pro-myostatin [1] and with human pro-myostatin [2] were approximately 0.4 nM and approximately 0.2 nM, respectively.

B2: Ab109 (antibody, human IgG4 S228P, kappa, V domains shown)
VH: EVQLVESGGGLVQPGGSLRLSCAASGFTFSSYGMSWVRQAPGKGLELVASFTGSGGTYYPDSVKGRFTISRDNAKNSLYLQMNSLRAEDTAVYYCARDLLIRFLEWSHYYGMDVWGQGTTVTVSS
VL: DIVMTQSPLSLPVTPGEPASISCRSSQSLLHSSGHNFLHWYLQKPGQSPQLLIYEVSNRVSGVPDRFSGSGSGTDFTLKISRVEAEDVGVYYCMQQTQYPPTFGGGTKVEIKR
notes: human IgG4 in the EM experiment; also called Ab109 Human IgG4
Consider B2, for which the “fold difference in off-rate (Kd at pH 5.5 / Kd at pH 7.4)” value was 18.4 fold in [3] and 25 fold in [4]. Also, the Kd in the assay with cyno pro-myostatin [5] came to 0.128 nM; with human pro-myostatin [6] it was 0.138 nM; with murine pro-myostatin [7], 0.197 nM; in the assay with human pro-myostatin [9], 0.579 nM. Moreover, the values for the koff with cyno pro-myostatin [5] and in the assay with murine pro-myostatin [7] were 0.000925 s⁻¹ and 0.00134 s⁻¹, respectively. Also, the values for the kon with cyno pro-myostatin [5], with human pro-myostatin [6] and in the assay with murine pro-myostatin [7] were 7.23e+06 M⁻¹ s⁻¹, 6.62e+06 M⁻¹ s⁻¹ and 6.81e+06 M⁻¹ s⁻¹, respectively. In [8], the “IC50 of inhibition of myostatin activation by mTLL-2 (functional ELISA, FIG. 1A)” value was 0.38 nM. The “IC50 of inhibition of myostatin activation by mTLL-2 (functional ELISA, FIG. 1B)” value in assay [8] was 0.33 nM. Also, the “mTLL2 IC50” value in assay [10] was determined as 0.145 nM. The “IC50 (nM) Latent + mTLL2” value in [11] is 0.145 nM. Besides, the “IC50 (nM) Pro + Furin” value in the assay with human pro-myostatin [12] came out at 0.214 nM.

B3: Ab132 (antibody, human IgG4 S228P, kappa, V domains shown)
VH: B2 VH
VL: B2 VL with M94Q
With B3, the “fold difference in off-rate (Kd at pH 5.5 / Kd at pH 7.4)” value in [4] was found to be 24 fold. The same molecule had a Kd in the assay with human pro-myostatin [9] of 0.926 nM. The “mTLL2 IC50” value in assay [10] was determined as 0.144 nM.

B4: Ab106 (antibody, human IgG4 S228P, kappa, V domains shown)
VH: EVQLVESGGGLVQPGGSLRLSCAASGSAFSSYGMSWVRQAPGKGLELVASINSNGGSTYYPDSVKGRFTISRDNAKNSLYLQMNSLRAEDTAVYYCARDLLVRFLEWAGYYGMDVWGQGTTVTVSS
VL: B2 VL
B4: the “EC50 (read off the curve)” value with cyno pro-myostatin [13] and with human pro-myostatin [14] was approximately 0.2 nM each time. The values for the Kd in the assay with cyno pro-myostatin [5], with human pro-myostatin [6] and in the assay with murine pro-myostatin [7] were 0.152 nM, 0.112 nM and 0.162 nM, respectively. In addition, the koff with cyno pro-myostatin [5] turned out to be 0.000291 s⁻¹; with human pro-myostatin [6], 0.000224 s⁻¹; with murine pro-myostatin [7], 0.000317 s⁻¹. Moreover, the values for the kon with cyno pro-myostatin [5], with human pro-myostatin [6] and in the assay with murine pro-myostatin [7] were 1.91e+06 M⁻¹ s⁻¹, 2e+06 M⁻¹ s⁻¹ and 1.96e+06 M⁻¹ s⁻¹, respectively. The “IC50 (nM) Latent + mTLL2” value in assay [11] is 0.163 nM. Also, in the assay with human pro-myostatin [12], the “IC50 (nM) Pro + Furin” value stood at 0.233 nM.

B5: Ab122 (antibody, human IgG4 S228P, kappa, V domains shown)
VH: QVTLRESGPALVKPTQTLTLTCTVSGGSLSSGGSYVNWIRQPPGKALEWLAMTDWDADNIVYNSALKSRLTISKDTSKNQVVLTMTNMDPVDTATYYCAHRQNVDSYGYWGDAFDIWGQGTMVTVSS
VL: DIVMTQSPDSLAVSLGERATINCKSSQSVLYSADNKNYLAWYQQKPGQPPKLLIYDASSLENGVPDRFSGSGSGTDFTLTISSLQAEDVAVYYCQQGHLFPYSFGGGTKVEIKR
notes: The light chain is printed ending ...NRGE, without the last C
As to B5, the entries for the “EC50 (read off the curve)” value with human pro-myostatin [15], with cyno pro-myostatin [16] and with murine pro-myostatin [17] were approximately 0.5 nM, approximately 0.2 nM and approximately 0.6 nM, respectively.

B6: Ab127 (antibody, human IgG4 S228P, kappa, V domains shown)
VH: EVQLVESGGGLVQPGGSLRLSCTASGFTFGSYPMDWVRQAPGKGLEWVSYISGRGDVTYYADSVKGRFTISRDNAKNTLYLQMNSLRAEDTAVYYCAKVQSPSELLWFGELLPVDYWGQGTLVTVSS
VL: DIQMTQSPSSLSASVGDRVTITCQASQVIKTWLNWYQQKPGKAPKLLIYDASNLQRGVPSRFSGSGSGTDFTFTISSLQPEDIATYYCQQSASTPITFGGGTKVEIKR
B6: the binding result with mouse GDF-11 and with human GDF-11 was “no binding” in each case. The Kd with cyno pro-myostatin [5] amounted to 0.327 nM; with human pro-myostatin [6], 0.262 nM; with murine pro-myostatin [7] it was 0.325 nM. In addition, the values for the koff with cyno pro-myostatin [5], with human pro-myostatin [6] and with murine pro-myostatin [7] were 0.000269 s⁻¹, 0.000213 s⁻¹ and 0.000265 s⁻¹, respectively. For the same molecule, the kon with cyno pro-myostatin [5] was 821000 M⁻¹ s⁻¹; in the assay with human pro-myostatin [6], 813000 M⁻¹ s⁻¹; in the assay with murine pro-myostatin [7] it was 815000 M⁻¹ s⁻¹. In addition, the figures for the “EC50 (read off the curve)” value with human pro-myostatin [15], with cyno pro-myostatin [16] and with murine pro-myostatin [17] were approximately 0.4 nM, approximately 0.3 nM and approximately 0.6 nM, respectively. The “IC50 (nM) Latent + mTLL2” value in assay [11] was 0.14 nM. Besides, the “IC50 (nM) Pro + Furin” value with human pro-myostatin [12] amounted to 0.195 nM.

B7: Ab111 (antibody, human IgG4 S228P, kappa, V domains shown)
VH: QVQLVQSGAEVKKPGASVKVSCKVSGYTFTSNDIHWVRQAPGKGLEWMGGIFPIFGTTIYAQKFQGRVTMTEDTSTDTAYMELSSLKSEDTAVYYCAREGLGYDFDYWGQGTLVTVSS
VL: DIQMTQSPSSVSASVGDRVTITCRASQNIGNWLAWYQQKPGKAPKLLIYSASALQSGVPSRFSGSGSGTDFTLTISSLQPEDFANYYCQQSYGAPMYSFGGGTKVEIKR
In the case of B7, the binding result is given as “no binding” with mouse GDF-11, “binds” in the assay with murine pro-myostatin [1], “binds” with human pro-myostatin [2] and “no binding” with human GDF-11.

By EC50 (read off the curve) is commonly meant the midpoint of the concentration-response curve. Lower therefore signals higher potency in that assay. As a reminder, the Kd is a measure of binding affinity in units of concentration. Low readings indicate a tighter complex, high ones a looser complex. What is called koff is a measure of how fast the partners let go of each other. High values mean fast dissociation, low ones slow dissociation. In general, kon refers to the rate constant with which the complex forms.

These data come from US20260209325A1 (SCHOLAR ROCK, published 2026).
